In PMC8025675:

Molecular target: low-affinity anti-HER2 scFv (scFv Kd = 210 nM)
Assay: BLI

- Kd: 210 nM
Substance: human epidermal growth factor receptor 2 (HER2) (from UniProt P04626 23-1255)
